From patent publication US20200317768A1 (published 2020) come the findings set out here.

Residue numbers refer to the chain shown, from its start. Names may count otherwise.

Assay in all cases: SPR (Biacore), antibody captured, FcgR analyte
Background: In SPR one partner is held on a chip, and binding of the other changes the refractive index at the surface.

In test [1] the target is T1, cynomolgus monkey FcγRIIa3 extracellular domain, C-terminal His-tag (cynomolgus monkey).
T1 construct: also called cyno FcγRIIa3; cynoFcgRIIa3
T1 chain: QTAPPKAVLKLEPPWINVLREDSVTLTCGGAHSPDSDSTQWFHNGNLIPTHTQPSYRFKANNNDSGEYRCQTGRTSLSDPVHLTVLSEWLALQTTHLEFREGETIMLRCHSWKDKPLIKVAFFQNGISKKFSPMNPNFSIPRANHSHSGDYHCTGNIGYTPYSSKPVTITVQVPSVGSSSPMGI

Test [2] deals with T2, human FcγRIIaH extracellular domain, C-terminal His-tag (human, UniProt P12318 34-217).
T2 construct: also called human FcγRIIa (type H); FcgRIIaH
T2 sequence: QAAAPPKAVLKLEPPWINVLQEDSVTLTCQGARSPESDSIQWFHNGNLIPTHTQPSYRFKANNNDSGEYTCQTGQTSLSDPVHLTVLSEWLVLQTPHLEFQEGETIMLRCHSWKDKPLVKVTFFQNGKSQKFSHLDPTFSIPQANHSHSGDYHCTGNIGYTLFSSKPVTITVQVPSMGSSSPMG

Test [3] concerns the target T3, human FcγRIIIaV extracellular domain, C-terminal His-tag (human, UniProt P08637 17-208).
T3 construct: also called human FcgRIIIaV; FcgRIIIaV

The target in test [4] is T4, cynomolgus monkey FcγRIIb extracellular domain, C-terminal His-tag (cynomolgus monkey).
T4 construct: also called cyno FcγRIIb; cynoFcγRIIb
T4 chain: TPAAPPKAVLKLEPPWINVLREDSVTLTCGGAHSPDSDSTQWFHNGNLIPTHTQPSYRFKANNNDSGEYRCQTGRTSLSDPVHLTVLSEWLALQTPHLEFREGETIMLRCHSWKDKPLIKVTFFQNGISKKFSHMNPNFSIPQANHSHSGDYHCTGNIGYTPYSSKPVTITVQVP

Test [5] has as its target T5, cynomolgus monkey FcγRIIa1 extracellular domain, C-terminal His-tag (cynomolgus monkey).
T5 construct: also called cyno FcγRIIa1; cynoFcgRIIa1
T5 chain: T1 chain with T95P, A121T, S128A, P133H, N135D

The target of test [6] is T6, human FcγRIIaR extracellular domain, C-terminal His-tag (human, UniProt P12318 34-217).
T6 construct: also called human FcγRIIa (type R); FcgRIIaR
T6 chain: T2 sequence with H134R

Test [7] has as its target T7, human FcγRIIb extracellular domain, C-terminal His-tag (human, UniProt P31994 43-217).
T7 construct: also called human FcgRIIb; FcgRIIb
T7 sequence: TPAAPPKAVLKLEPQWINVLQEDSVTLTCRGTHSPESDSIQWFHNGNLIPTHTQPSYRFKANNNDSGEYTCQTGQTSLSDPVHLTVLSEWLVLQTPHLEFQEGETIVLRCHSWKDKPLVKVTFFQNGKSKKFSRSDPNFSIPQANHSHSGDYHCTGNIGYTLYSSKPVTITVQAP

In test [8] the target is T8, cynomolgus monkey FcγRIIIaS extracellular domain, C-terminal His-tag (cynomolgus monkey, UniProt Q8SPW2 21-206 at identity 1.00)).
T8 construct: also called cyno FcγRIIIaS; cynoFcγRIIIaS
T8 chain: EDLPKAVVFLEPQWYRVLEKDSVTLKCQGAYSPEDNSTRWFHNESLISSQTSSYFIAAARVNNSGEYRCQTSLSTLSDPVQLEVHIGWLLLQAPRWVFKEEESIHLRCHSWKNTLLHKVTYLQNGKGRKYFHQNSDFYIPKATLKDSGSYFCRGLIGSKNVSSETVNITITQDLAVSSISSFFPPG

The target of test [9] is T9, cynomolgus monkey FcγRIIa2 extracellular domain, C-terminal His-tag (cynomolgus monkey).
T9 construct: also called cyno FcγRIIa2; cynoFcgRIIa2
T9 chain: T1 chain with I127K, K130N, P133H, R142Q

T3 sequence (P08637 17-208 F176V): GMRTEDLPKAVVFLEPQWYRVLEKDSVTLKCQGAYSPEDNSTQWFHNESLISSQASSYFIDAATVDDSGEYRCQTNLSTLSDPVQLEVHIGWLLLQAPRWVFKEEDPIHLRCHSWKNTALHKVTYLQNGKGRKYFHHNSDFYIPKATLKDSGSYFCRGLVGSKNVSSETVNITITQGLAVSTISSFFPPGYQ

B1: M103205H795-MY212/M103202L889-SK1 (antibody, human IgG1, kappa)
heavy: QVTLKESGPVLVKPTETLTLTCTVSGIDLSHDDISWVRQAPGKGLEWVGIISYAGSTYYASWAKGRLTISKDTSKNQVVLTMTNMDPVDTATYYCARGVPAYSHGGDLWGQGTLVTVSSASTKGPSVFPLAPSSKSTSGGTAALGCLVKDYFPEPVTVSWNSGALTSGVHTFPAVLQSSGLYSLSSVVTVPSSSLGTQTYICNVNHKPSNTKVDKKVEPKSCDKTHTCPPCPAPELLNGPVVFLFPPKPKDTLMISRTPEVTCVVVDVSDEDPEVKFNWYVDGVEVHNAKTKPREELYNSTYRVVSVLTVLHQDWLNGKEYKCKVSNTALPKPIEKTISKAKGQPREPQVYTLPPSREEMTKNQVSLTCLVKGFYPSDIAVEWESNGQPENNYKTTPPVLDSDGSFFLYSKLTVDKSRWQQGNVFSCSVMHEALHNHYTQKSLSLSP
light: DIVMTQSPATLSLSPGERATLSCTSSQSVYHANWLSWFQQKPGQPPKLLIYWASTLAYGVPSRFSGSGSGTDFTLTISSLQPEDAATYYCAGGYGGGRYAFGQGTKVEIKRTVAAPSVFIFPPSDEQLKSGTASVVCLLNNFYPREAKVQWKVDNALQSGNSQESVTEQDSKDSTYSLSSTLTLSKADYEKHKVYACEVTHQGLSSPVTKSFNRGEC
notes: Substitutions introduced into M103205H795-SG1; expressed with M103202L889-SK1 as light chain
Consider B1, for which the Kd in [1] amounted to 29 µM; in test [2], 0.8 µM; in test [3], 6.5 µM; in [4], 0.37 µM; in [5] it was 0.56 µM; in test [6], 1.3 µM. Also, the Kd in test [7] was 0.63 µM; in test [8] it was 2.6 µM; in test [9] it was 0.53 µM.

B2: M103205H795-MY538/M103202L889-SK1 (Table 19: L235W/G236N/H268D/Q295L/K326T/A330K) (antibody, human IgG1, kappa)
heavy: B1 heavy with L237W, V241S
light: B1 light
notes: also called MY518 (as the text names this set of substitutions)
Consider B2, for which the Kd in test [1] came to 2.4 µM; in [2], 0.85 µM; in test [3], 23 µM; in test [4] it was 0.26 µM; in test [5], 0.89 µM; in test [6] it was 0.67 µM. Besides, the Kd in test [7] was determined as 0.48 µM; in [8], 4.2 µM; in test [9], 0.9 µM.

B3: M103205H795-MY330/M103202L889-SK1 (antibody, human IgG1, kappa)
heavy: B1 heavy with L237W, V241S, D270E, L297Q, T328K, P398M
light: B1 light
notes: as for B1
With B3, the Kd was 4.7 µM in test [1]; 0.96 µM in test [2]; 12 µM in test [3]; 0.61 µM in test [4]; 2.2 µM in test [5]; 0.9 µM in test [6]. The figures for the Kd in test [7], in [8] and in test [9] were 0.67 µM, 6.6 µM and 2.2 µM, respectively.

B4: M103205H795-MY288/M103202L889-SK1 (antibody, human IgG1, kappa)
heavy: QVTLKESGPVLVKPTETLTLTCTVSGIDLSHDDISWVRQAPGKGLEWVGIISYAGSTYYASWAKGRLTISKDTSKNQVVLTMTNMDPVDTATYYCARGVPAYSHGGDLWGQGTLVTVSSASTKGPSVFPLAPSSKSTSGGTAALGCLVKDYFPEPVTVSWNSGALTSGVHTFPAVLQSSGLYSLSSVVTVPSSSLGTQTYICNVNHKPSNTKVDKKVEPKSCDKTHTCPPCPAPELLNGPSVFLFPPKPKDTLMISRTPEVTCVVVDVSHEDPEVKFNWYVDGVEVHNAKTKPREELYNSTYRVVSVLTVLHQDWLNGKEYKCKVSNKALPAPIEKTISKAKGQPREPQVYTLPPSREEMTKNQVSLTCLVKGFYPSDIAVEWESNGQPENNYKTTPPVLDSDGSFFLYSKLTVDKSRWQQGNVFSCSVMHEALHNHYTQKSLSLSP
light: B1 light
notes: as for B1
With B4, the Kd came out at 11 µM in test [1]; 1.4 µM in test [2]; 68 µM in [3]; 3.2 µM in test [4]; 1.5 µM in [5]; 8.5 µM in [6]. Besides, the values for the Kd in [7], in [8] and in test [9] were 6.2 µM, 13 µM and 2 µM, respectively.

B5: M103205H795-MY440/M103202L889-SK1 (antibody, human IgG1, kappa)
heavy: B1 heavy with L237W, V241S, T328K
light: B1 light
notes: as for B1
For B5, the Kd in [1] came to 48 µM; in test [2], 0.91 µM; in [3], 27 µM; in test [4] it was 0.46 µM; in test [5], 1.6 µM; in test [6], 11 µM. The Kd came to 0.8 µM in [7], 9.3 µM in test [8] and 1.8 µM in [9].

B6: M103205H795-MY434/M103202L889-SK1 (antibody, human IgG1, kappa)
heavy: B1 heavy with L237W, V241S, L297Q, T328K
light: B1 light
notes: as for B1
Consider B6, for which the Kd in [1] was determined as 64 µM; in test [2], 16 µM; in [3], 16 µM; in test [4] it was 0.74 µM; in test [5], 2.9 µM; in test [6], 1.9 µM. The Kd in test [7] came out at 1.4 µM; in test [8] it was 11 µM; in test [9], 2.4 µM.

B7: M103205H795-MY289/M103202L889-SK1 (antibody, human IgG1, kappa)
heavy: B1 heavy with V241S, D270H, L297Q, T328K, P398M
light: B1 light
notes: as for B1
As for B7, the Kd in [1] amounted to 86 µM; in [2], 0.83 µM; in test [3] it was 7.7 µM; in test [4], 0.74 µM; in [5], 1.3 µM; in test [6], 5.5 µM. In addition, the Kd in test [7] is 2.9 µM; in [8], 5.2 µM; in test [9] it was 1.5 µM.

A word on the Kd: it is the equilibrium constant for the complex coming apart.
